Earlier results as cited in publication PMC11301627.

Molecular target: Asp133 (UniProt position 133, SNFHFDTTAAH)
Test: kinetics
Settings: wild-type enzyme, steady-state reaction with L-Trp

## Tryptophan indole-lyase (TIL, tryptophanase) (Proteus vulgaris)
  pKa: 5.3
